According to patent US8394771:

Target: ICAM-1 on HeLa cells (human) (UniProt P05362)
Experiment: cell-based or functional assay

bivalent anti-ICAM-1 monoclonal antibody RR/1 (Chemicon)
EC50, protection of HeLa cells from HRV15 infection: > 10 nM
